Changes are numbered by the printed parent chain. In names and notes the source's numbering stands.

Test [1] has as its target T1, human IL-8 (human, UniProt P10145 23-99, limits assumed).
T1 construct: also called hIL-8; hIL8
Kind of test: SPR Biacore T200, Protein A/G capture, IL-8 analyte, pH 7.4, 37C. On the technique in general: SPR reads the build-up and loss of mass on a sensor chip optically.
Experimental: (§1) An appropriate amount of Protein A/G (PIERCE) was immobilized onto Sensor chip CM4 (GE Healthcare) by the amine coupling method and the antibodies of interest was captured. […] To regenerate the sensor chip, 10 mM glycine-HCl at pH 1.5 was used. All measurements were carried out at 37° C. […] The BIACORE T200 Evaluation Software (GE Healthcare) was used to calculate each parameter.

In test [2] the target is T1, human IL-8. Kind of test: SPR Biacore T200, Protein A/G capture, pH 7.4, 40C.
Experimental: (§2) An appropriate amount of Protein A/G (PIERCE) was immobilized onto the Sensor chip CM4 (GE Healthcare) by the amine coupling method and the antibodies of interest were captured. […] To regenerate the sensor chip, 25 mM NaOH and 10 mM glycine-HCl (pH 1.5) were used. […] The BIACORE T200 Evaluation Software (GE Healthcare) was used to calculate each parameter.
For test [3], the target named is T1, human IL-8. Briefly: SPR Biacore T200, Protein A/G capture, IL-8 analyte, pH 5.8, 37C.
Experimental: as §1
Test [4] concerns the target T1, human IL-8. Kind of test: SPR Biacore T200, Protein A/G capture, pH 5.8, 37C.
Experimental: as §2
The target in test [5] is T1, human IL-8. Kind of test: SPR Biacore T200, Protein A/G capture, IL-8 analyte, pH 5.8, 37C. This is another data set of the same source.
Experimental: as §1
Test [6] deals with T1, human IL-8. Kind of test: SPR Biacore T200, Protein A/G capture, pH 5.8, 37C. This is another data set of the same source.
Experimental: as §2
The target in test [7] is T1, human IL-8. Briefly: SPR Biacore T200, Protein A/G capture, IL-8 analyte, pH 7.4, 37C. The source holds these as a separate data set.
Experimental: as §1
The target in test [8] is T1, human IL-8. Kind of test: SPR IL-8 binding level per 1000 RU captured Ab, pH 7.4, 40C; 1 week 50C in PBS vs initial.
The target in test [9] is T1, human IL-8. Briefly: SPR Biacore T200, Protein A/G capture, pH 7.4, 40C. The source holds these as a separate data set.
Experimental: as §2

T1 sequence (P10145 23-99 limits assumed): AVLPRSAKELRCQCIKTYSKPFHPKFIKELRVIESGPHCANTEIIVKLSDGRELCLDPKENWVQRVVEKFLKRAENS

B1: H89/L118 (H89-IgG1 / L118-k0MT) (antibody, V domains shown)
VH: QVQLVESGGGLVQPGGSLRLSCAASGFTFSDYYLSWVRQAPGKGLEWVGLIRNKANGYTREYSASVKGRFTISRDDSKNSLYLQMSSLKTEDTAVYYCARENHRYDVELAYWGQGTLVTVSS
VL: DIQMTQSPSSLSASVGDRVTITCRASEIIYSYLAWYQQKPGKAPKLLIYHAKTHADGVPSRFSGSGSGTDFTFTISSLQPEDIATYYCKHHFGFPRTFGQGTKVEIKR
notes: also called H0089/L0118
For B1, the koff (usually the first-order rate constant of dissociation) is 0.000114 s⁻¹ with human IL-8 [1]; 0.000129 s⁻¹ with human IL-8 [2]; 0.0039 s⁻¹ with human IL-8 [3]; 0.00628 s⁻¹ with human IL-8 [4]; 0.00384 s⁻¹ with human IL-8 [5]; 0.0063 s⁻¹ with human IL-8 [6]. The molecule also yielded a koff with human IL-8 [7] of 2.13e-05 s⁻¹. For the same molecule, the kon (usually a measure of how fast the partners come together) in the test with human IL-8 [1] was 945000 M⁻¹ s⁻¹; in the test with human IL-8 [2], 751000 M⁻¹ s⁻¹; in the test with human IL-8 [3] it was 123000 M⁻¹ s⁻¹; with human IL-8 [4] it was 129000 M⁻¹ s⁻¹; with human IL-8 [5], 179000 M⁻¹ s⁻¹; with human IL-8 [7] it was 580000 M⁻¹ s⁻¹.

B2: H1040/L0442 (antibody, human IgG1, kappa, name in Kabat numbering, V domains shown)
VH: B1 VH with D31E, A55D, G57H, Y58H, T59H, R60P, Q84T, S87D
VL: B1 VL with S31E, H50K
notes: L442 = L395 + S31E
For B2, in the test with human IL-8 [8], the “Ratio of IL-8 Binding Amount (Thermal Acceleration/Initial)” value is 0.49. Besides, in the test with human IL-8 [9], the Kd (commonly the equilibrium constant for the complex coming apart) was determined as 0.34 nM. In the test with human IL-8 [6], this molecule had a Kd of 140 nM and a koff of 0.21 s⁻¹.

B3: H1009/L395 (H1009-IgG1m / L395-k0MT) (antibody)
heavy: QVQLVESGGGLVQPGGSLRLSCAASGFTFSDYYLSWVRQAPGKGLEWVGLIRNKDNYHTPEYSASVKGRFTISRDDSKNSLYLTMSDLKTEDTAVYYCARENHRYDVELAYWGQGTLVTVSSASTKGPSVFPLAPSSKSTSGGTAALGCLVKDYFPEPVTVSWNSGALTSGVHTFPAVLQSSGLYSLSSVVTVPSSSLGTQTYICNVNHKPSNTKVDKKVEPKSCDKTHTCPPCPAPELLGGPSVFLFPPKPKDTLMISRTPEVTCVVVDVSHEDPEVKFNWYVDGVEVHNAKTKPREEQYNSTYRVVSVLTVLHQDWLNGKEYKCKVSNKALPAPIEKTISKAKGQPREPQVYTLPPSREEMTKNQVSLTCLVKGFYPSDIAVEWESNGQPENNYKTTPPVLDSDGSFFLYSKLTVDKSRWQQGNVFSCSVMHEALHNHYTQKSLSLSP
light: DIQMTQSPSSLSASVGDRVTITCRASEIIYSYLAWYQQKPGKAPKLLIYKAKTHADGVPSRFSGSGSGTDFTFTISSLQPEDIATYYCKHHFGFPRTFGQGTKVEIKRTVAAPSVFIFPPSDEQLKSGTASVVCLLNNFYPREAKVQWKVDNALQSGNSQESVTEQDSKDSTYSLSSTLTLSKADYEKHKVYACEVTHQGLSSPVTKSFNRGEC
notes: also called H1009/L0395
With B3, the “Ratio of IL-8 Binding Amount (Thermal Acceleration/Initial)” value with human IL-8 [8] turned out to be 0.64. Also, in the test with human IL-8 [6], the koff is 0.01 s⁻¹.
